Here are results for one protein from publication PMC7521653, “Structural analysis of the LDL receptor–interacting FERM domain in the E3 ubiquitin ligase IDOL reveals an obscured substrate-binding site” (The Journal of Biological Chemistry, 2020).

This data set concerns the molecule itself. Briefly: crystal structure; F3ab (183-283), space group P2(1)2(1)2(1), three copies in the asymmetric unit; crystals from 100 mM Hepes, pH 7.0, 10% (w/v) PEG 6000.

B1: IDOL F3ab subdomain (residues 183-283) (domain or fragment, human, UniProt Q8WY64 183-283, looked up)
chain: ENYGIEWHSVRDSEGQKLLIGVGPEGISICKDDFSPINRIAYPVVQMATQSGKNVYLTVTKESGNSIVLLFKMISTRAASGLYRAITETHAFYRCDTVTSA
notes: IDOL (MYLIP), human, F3ab subdomain, residues 183-283; E. coli codon-optimised gene in pET28(a); The construct holds an incomplete F3c' (279-283 of 279-300); also called FERM F3ab; third lobe of the FERM domain; not shown: His6, N-terminal, cleaved
Turning to B1, the binding result was “binds”.
